Experimental data published in patent US20230038638A1, “COMPLEMENT FACTOR I-RELATED COMPOSITIONS AND METHODS” (published 2023).
Where a chain is given by its changes, count along the chain named. “And” between values parts separate entries of the source, which are not always exact repeats. Identical values can stand only once.

How the values were obtained:
[1] = target: T1, human C4b (human) (UniProt P0C0L4)
T1 sequence: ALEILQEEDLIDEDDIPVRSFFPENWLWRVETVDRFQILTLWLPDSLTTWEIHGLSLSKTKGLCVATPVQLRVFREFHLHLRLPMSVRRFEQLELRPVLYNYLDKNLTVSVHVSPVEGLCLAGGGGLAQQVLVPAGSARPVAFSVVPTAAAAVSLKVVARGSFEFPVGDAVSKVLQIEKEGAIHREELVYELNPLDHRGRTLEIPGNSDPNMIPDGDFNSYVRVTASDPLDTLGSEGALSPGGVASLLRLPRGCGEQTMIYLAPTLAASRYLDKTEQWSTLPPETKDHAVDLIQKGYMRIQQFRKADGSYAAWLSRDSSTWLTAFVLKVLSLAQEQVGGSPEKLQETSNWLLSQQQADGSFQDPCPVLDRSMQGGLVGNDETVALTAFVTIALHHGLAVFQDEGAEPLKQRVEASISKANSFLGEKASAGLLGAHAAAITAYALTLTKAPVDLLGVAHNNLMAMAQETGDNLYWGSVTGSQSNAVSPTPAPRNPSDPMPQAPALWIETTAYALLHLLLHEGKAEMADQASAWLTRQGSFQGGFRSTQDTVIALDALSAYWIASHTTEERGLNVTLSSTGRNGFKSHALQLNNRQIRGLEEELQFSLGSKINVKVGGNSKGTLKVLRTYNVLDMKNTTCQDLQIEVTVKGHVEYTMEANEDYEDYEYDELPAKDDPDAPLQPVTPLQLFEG

[2] = target: soluble human C3b (human) (UniProt P01024)
[3] = target: T1, human C4b (human); remark: listed apart in the source
[4] = target: T2, human C4b (human) (UniProt P0C0L5)
T2 sequence: T1 sequence with A151T, D317G, P364L, C365S, L368I, D369H, N420S, V451A, L454R, S530A

Substance	C4c EC50 (nM) [3] [nM]	C4b Screen Ref Fold (fold of CFI-HSA wild type) [1]	iC3b Screen Ref Fold (fold of CFI-HSA wild type) [2]	C4c EC50 [3] [nM]	further results
CFI-HSA variant N531D (enzyme)	77.2	–	–	–	C4b Screen Ref Fold (fold of reference) [1]: 4.91; iC3b Screen Ref Fold (fold of reference) [2]: 1.52
CFI-HSA variant E416A; E457G; E461Q; F464Y; N531G (enzyme)	12	4.74	1.79	–	–
CFI-HSA variant Y408F; E457G; E461Q; R462K; F464Y; N531G (enzyme)	13.2	4.57	1.87	–	–
CFI-HSA variant N531Q (enzyme)	310	–	–	–	C4b Screen Ref Fold (fold of reference) [1]: 3.46; iC3b Screen Ref Fold (fold of reference) [2]: 0.69
CFI-HSA variant Y408L; E457G; E461Q; R462K; K504H; N531G (enzyme)	27.5	3.83	0.84	–	–
CFI-HSA variant N531F (enzyme)	183	–	–	–	C4b Screen Ref Fold (fold of reference) [1]: 1.98; iC3b Screen Ref Fold (fold of reference) [2]: 1.09
CFI-HSA variant E457G; E461Q; E530F; N531G; P558S (enzyme)	17.8	4.57 and 4.37	1.37 and 1.5	–	–
CFI-HSA variant E457G; E461Q; R462K; F464Y; K504H; N531G (enzyme)	51.7	4.01	2	–	–
CFI-HSA variant E457G; E461Q; K504H; N531G (enzyme)	39	3.91	1.2	–	–
CFI-HSA variant Y408L; E457G; E461Q; R462K; E530Y; N531G; P558S (enzyme)	27.3	4.18	2.06	–	–
CFI-HSA variant Y408L; N531G; D425K (enzyme)	–	–	1.43	50.1	C4b Screen Ref Fold (fold of CFI-HSA wild type) [4]: 4.99
CFI-HSA variant Y408L; E457G; E461Q; R462K (enzyme)	90.2	–	–	–	iC3b Screen Ref Fold (fold vs CFI-HSA wild type) [2]: 0.89; C4b Screen Ref Fold (fold vs CFI-HSA wild type) [4]: 3.98
CFI-HSA variant E457G; P535G; K534Q (enzyme)	–	–	0.82	154	C4b Screen Ref Fold (fold of CFI-HSA wild type) [4]: 3.85
CFI-HSA variant S552G; P558S (enzyme)	–	–	2.1	375	C4b Screen Ref Fold (fold of CFI-HSA wild type) [4]: 1.96
CFI-HSA variant Y408L; E457G; N531G; K534Q (enzyme)	–	–	0.54	26.4	C4b Screen Ref Fold (fold of CFI-HSA wild type) [4]: 5.16
CFI-HSA variant Y408L; E457G; K534Q (enzyme)	–	–	0.97	83.8	C4b Screen Ref Fold (fold of CFI-HSA wild type) [4]: 5.24
CFI-HSA variant N531S (enzyme)	176	–	–	–	C4b Screen Ref Fold (fold of reference) [1]: 2.21; iC3b Screen Ref Fold (fold of reference) [2]: 1.16
CFI-HSA variant Y408L; N531G; E461Q; R462K; F464Y (enzyme)	82.7	–	–	–	iC3b Screen Ref Fold (fold vs CFI-HSA wild type) [2]: 0.92; C4b Screen Ref Fold (fold vs CFI-HSA wild type) [4]: 5.97
CFI-HSA variant Y408L; E457G; N531G; P535G; N422K (enzyme)	–	–	1.77	59.7	C4b Screen Ref Fold (fold of CFI-HSA wild type) [4]: 3.64
CFI-HSA variant E457G; E461Q; R462K; F464Y; N531G; R557K (enzyme)	12.4	4.47	1.49	–	–
CFI-HSA variant G406D; N531G; P535A (enzyme)	–	–	–	129	C4b Screen Ref Fold (fold of reference) [1]: 5.98; iC3b Screen Ref Fold (fold of reference) [2]: 0.88
CFI-HSA variant E530D-N531G; G533A-K534Q-P535K-E536N (enzyme)	470	–	–	–	iC3b Screen Ref Fold (fold vs CFI-HSA wild type) [2]: 1.63; C4b Screen Ref Fold (fold vs CFI-HSA wild type) [4]: 1.4
